Laboratory results: US20230272071A1 (ARIZONA BOARD OF REGENTS ON BEHALF OF THE UNIVERSITY OF …, published 2023)

Experiments:
[1] = target: T1, human CD19 on Ramos cells (B-cell lymphoma) (human, UniProt P15391 20-556); experiment: flow cytometry of Ramos cells incubated with M12 supernatant, detected with PE anti-mouse I-A/I-E
T1 construct: whole, on cells; also called hCD19
T1 sequence (looked up): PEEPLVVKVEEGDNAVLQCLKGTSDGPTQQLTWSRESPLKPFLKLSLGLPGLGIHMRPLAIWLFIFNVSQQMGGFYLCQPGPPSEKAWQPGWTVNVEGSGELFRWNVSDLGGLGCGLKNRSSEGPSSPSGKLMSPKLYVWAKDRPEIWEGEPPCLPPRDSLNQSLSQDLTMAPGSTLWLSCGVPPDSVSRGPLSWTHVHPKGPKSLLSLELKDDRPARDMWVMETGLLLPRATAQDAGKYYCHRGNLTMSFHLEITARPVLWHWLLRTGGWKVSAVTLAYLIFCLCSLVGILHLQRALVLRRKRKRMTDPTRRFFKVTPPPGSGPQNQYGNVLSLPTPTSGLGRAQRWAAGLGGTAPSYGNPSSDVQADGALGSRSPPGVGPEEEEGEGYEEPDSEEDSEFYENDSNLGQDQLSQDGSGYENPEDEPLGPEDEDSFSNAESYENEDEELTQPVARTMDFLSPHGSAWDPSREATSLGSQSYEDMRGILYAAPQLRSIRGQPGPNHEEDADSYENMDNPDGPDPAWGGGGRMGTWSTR
Experimental: Ramos cells were incubated with culture media (negative control) or supernatant from M12 cells expressing BMiMS, then stained with fluorophore conjugated antibodies against the indicated immune molecules and analyzed by flow cytometry.
M12 cells were cultured to confluency (1-2×10⁶ cells/mL) in complete RPMI (5% FCS) and the supernatant was harvested for analysis as described above. Ramos cells were harvested, washed, and 1×10⁶ were incubated with media (negative control) or 0.250 mL of concentrated (50 mL down to 0.250 mL in Amicon Ultra 15 10 kDa (Millipore)) M12 cell culture supernatant at 4° C. for 1 hour. After washing, cells were stained with PE conjugated anti-mouse I-A/I-E (clone M5/14. 15.2, eBiosciences), PE conjugated anti-mCD80 (clone 16-10A1, BioLegend), anti-mCD86 (clone GL-1, BioLegend) or anti-mlCAM-1 (clone YN1/1.7.4, eBioscience) and analyzed by flow cytometry.

[2] = target: T2, recombinant huCD19 (BioLegend) (human, UniProt P15391 20-291, limits assumed); experiment: plate coated with 4 ug/ml recombinant huCD19, BMiMS supernatant, washed; retention read through IL-2 of 5c.c7 T cells
T2 construct: Bought reagent; also called rhuCD19
T2 sequence (looked up): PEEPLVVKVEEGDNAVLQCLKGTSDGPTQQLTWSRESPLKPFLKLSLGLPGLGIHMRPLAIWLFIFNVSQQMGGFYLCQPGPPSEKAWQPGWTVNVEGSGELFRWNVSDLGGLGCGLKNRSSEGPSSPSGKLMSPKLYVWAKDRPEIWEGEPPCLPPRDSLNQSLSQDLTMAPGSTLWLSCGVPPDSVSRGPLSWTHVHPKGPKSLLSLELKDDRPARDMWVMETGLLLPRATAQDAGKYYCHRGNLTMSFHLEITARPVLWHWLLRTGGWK
Experimental: An experiment was designed to determine whether BMiMS can bind huCD19 and stimulate CD4+ T cells. See FIG. 9A. pMHCII-based BMiMS were made with the moth cytochrome c […] peptide (MCC) tethered with a flexible linker to I-E^k (MCC:I-E^k) which is recognized by the 5c.c7 TCR. For a pilot experiment, the wells of a 96-well plate were coated with 4 μg/ml recombinant huCD19 (BioLegend). The wells were washed and then incubated with concentrated supernatant from cells expressing pMHCII-BMiMS, CD80-BMiMS, or both. Naive 5c.c7+CD4+ T cells from 5c.c7 TCR transgenic mice (RagKO) were then incubated for 18 hr in the wells prior to harvesting of the supernatant for measurement of IL-2 by ELISA. No IL-2 was produced by cells cultured in wells with huCD19 only or the huCD19+CD80 BMiMS. IL-2 was produced by T cells cultured in wells with huCD19+pMHCII-BMiMS, and higher levels of IL-2 were produced by T cells cultured in wells coated with huCD19+pMHCII-BMiMS+CD80-BMiMS.

B1: mMHCII-Anti-hCD19 BMiMS (MCC:I-E^k fused to anti-hCD19 AltIg Fv of mAb B43, opened C-C' loop) (other)
MHC II alpha: CIKEEHTIIQAEFYLLPDKRGEFMFDFDGDEIFHVDIEKSETIWRLEEFAKFASFEAQGALANIAVDKANLDVMKERSNNTPDANVAPEVTVLSRSPVNLGEPNILICFIDKFSPPVVNVTWLRNGRPVTEGVSETVFLPRDDHLFRKFHYLTFLPSTDDFYDCEVDHWGLEEPLRKHWEFEEKTLLPETKESRGGLEVLFQGPEFGGSTTAPSAQLEKELQALEKENAQLEWELQALEKELAQAAAGQPPKLLIYDASNLVSGIPPRFSGSGSGTDFTLNIHPVEKVDAATYHCQQSTEDPWTFGGGTKLEIKSPGSGGGGSGGGGSGGGGSSGELVLTQSPASLAVSLGQRATISCKASQSVDYDGDSYLNWYQQIGGGGSHHHHHH
MHC II beta: CADPSGSANERADLIAYLKQATKEFRSGGGGSLVPRGSGGGGSVDRPWFLEYCKSECHFYNGTQRVRLLVRYFYNLEENLRFDSDVGEFRAVTELGRPDAENWNSQPEFLEQKRAEVDTVCRHNYEIFDNFLVPRRVEPTVTVYPTKTQPLEHHNLLVCSVSDFYPGNIEVRWFRNGKEEKTGIVSTGLVRNGDWTFQTLVMLETVPQSGEVYTCQVEHPSLTDPVTVEWKAQSTSAQNKSRGGLEVLFQGPEFGGSTTAPSAQLKKKLQALKKKNAQLKWKLQALKKKLAQAAAGQGLEWIGQIWPGDGDTNYNGKFKGKATLTADESSSTAYMQLSSLRSEDSAVYSCARRETTTVGRYYYAMDYWGQGTTVTSPGSGGGGSGGGGSGGGGSSGQVQLLESGAELVRPGSSVKISCKASGYAFSSYWMNWVKQRGGGGSHHHHHH
notes: Heterodimer secreted by M12 cells, used as concentrated culture supernatant; also called pMHCII-BMiMS; pMHCII-based BMiMS
B1: binds [1]; binds [2].
